From US20100105877A1

Molecular target: GLP-1 receptor on RIN-m5F rat insulinoma cells (Rat) (UniProt P32301)
Assay: cell-based or functional assay

In vitro titer (%): cAMP EC50 in RIN-m5F cells, relative to exendin-4 [%]	Substance
2	DA GLP-1(Lys20, 28)-PEG-Fc
2.6	Ser12 DA exendin-4(Lys27)-PEG-Fc
